The values below come from IntAct's records for PubMed 34948388.

B1: Multifunctional methyltransferase subunit TRM112-like protein (Homo sapiens), Q9UI30 (parent)
chain: MKLLTHNLLSSHVRGVGSRGFPLRLQATEVRICPVEFNPNFVARMIPKVEWSAFLEAADNLRLIQVPKGPVEGYEENEEFLRTMHHLLLEVEVIEGTLQCPESGRMFPISRGIPNMLLSEEETES
partner: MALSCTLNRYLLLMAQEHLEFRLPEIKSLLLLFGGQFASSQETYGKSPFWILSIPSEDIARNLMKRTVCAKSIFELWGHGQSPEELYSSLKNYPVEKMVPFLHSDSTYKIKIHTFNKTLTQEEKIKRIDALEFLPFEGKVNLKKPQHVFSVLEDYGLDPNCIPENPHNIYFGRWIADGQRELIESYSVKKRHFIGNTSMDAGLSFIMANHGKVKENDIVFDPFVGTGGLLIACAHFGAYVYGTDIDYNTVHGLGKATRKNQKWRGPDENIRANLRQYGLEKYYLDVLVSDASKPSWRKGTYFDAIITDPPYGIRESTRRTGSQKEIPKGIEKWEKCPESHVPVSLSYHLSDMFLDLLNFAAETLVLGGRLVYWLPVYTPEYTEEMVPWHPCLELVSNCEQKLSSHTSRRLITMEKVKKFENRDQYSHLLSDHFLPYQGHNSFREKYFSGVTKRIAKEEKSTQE
B2: Multifunctional methyltransferase subunit TRM112-like protein (Homo sapiens), Q9UI30 (parent)
chain: B1 chain
partner: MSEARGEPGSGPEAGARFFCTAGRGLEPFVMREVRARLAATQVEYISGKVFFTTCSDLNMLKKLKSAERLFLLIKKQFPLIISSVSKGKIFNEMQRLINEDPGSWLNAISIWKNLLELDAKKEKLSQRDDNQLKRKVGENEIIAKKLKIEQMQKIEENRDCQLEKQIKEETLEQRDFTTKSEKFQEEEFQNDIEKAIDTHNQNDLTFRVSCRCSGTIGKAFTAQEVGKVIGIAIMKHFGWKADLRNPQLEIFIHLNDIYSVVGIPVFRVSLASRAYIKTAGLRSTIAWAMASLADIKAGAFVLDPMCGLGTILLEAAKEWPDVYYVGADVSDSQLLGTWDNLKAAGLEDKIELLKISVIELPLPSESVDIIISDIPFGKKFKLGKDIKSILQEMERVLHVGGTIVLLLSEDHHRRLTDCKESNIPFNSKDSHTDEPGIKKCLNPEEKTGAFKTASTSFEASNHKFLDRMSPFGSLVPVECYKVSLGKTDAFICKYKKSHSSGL
B3: Multifunctional methyltransferase subunit TRM112-like protein (Homo sapiens), Q9UI30 (parent)
chain: B1 chain
partner: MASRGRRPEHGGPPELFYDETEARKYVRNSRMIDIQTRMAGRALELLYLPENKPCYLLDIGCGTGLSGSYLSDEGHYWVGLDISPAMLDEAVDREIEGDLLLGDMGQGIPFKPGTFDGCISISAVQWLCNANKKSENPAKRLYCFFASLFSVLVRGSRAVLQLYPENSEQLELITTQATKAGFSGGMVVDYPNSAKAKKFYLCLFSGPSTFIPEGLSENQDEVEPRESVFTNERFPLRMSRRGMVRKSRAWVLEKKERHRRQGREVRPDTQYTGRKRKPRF

The variants in the first assay derive from B1. Conditions: with trm11_human TRMT11, Q7Z4G4.
As to MKLLAHNLLSSHVRGVGSRGFPLRLQATEVRICPVEFNPNFVARMIPKVEWSAFLEAADNLRLIQVPKGPVEGYEENEEFLRTMHHLLLEVEVIEGTLQCPESGRMFPISRGIPNMLLSEEETES, the “effect of a mutation on the interaction” value is listed as “disrupting interaction strength”.

The next assay covers variants of B2. Conditions: with thum2_human THUMPD2, Q9BTF0.
In the case of MKLLTHNLLSSHVRGVGSRGFPLRLQATEVRICPVEFNPNFVARMIPAVEWSAFLEAADNLRLIQVPKGPVEGYEENEEFLRTMHHLLLEVAVIEGTLQCPESGRMFPISRGIPNMLLSEEETES, the “effect of a mutation on the interaction” value is given as “disrupting interaction strength”.

On to MKLLTHNLLSSHVRGVGSRGFPLRLQATEVRICPVEFNPNFVARMIPKVEWSAFLEAADNLRLIQVPKGPVEGYEENEEFLRTMHHLLLEVAVIEGTLQCPESGRMFPISRGIPNMLLSEEETES, for which the “effect of a mutation on the interaction” value is “disrupting interaction strength”. The same measure, in the same setting: then MKLLTHNLLSSHVRGVGSRGFPLRLQATEVRICPVEFNPNFVARMIPKVAWSAFLEAADNLRLIQVPKGPVEGYEENEEFLRTMHHLLLEVEVIEGTLQCPESGRMFPISRGIPNMLLSEEETES, with “with no effect”. Turning to MKLLTHNLLSSHVRGVGSRGFPLRLQATEVRICPVEFNPNFVARMIPAVEWSAFLEAADNLRLIQVPKGPVEGYEENEEFLRTMHHLLLEVEVIEGTLQCPESGRMFPISRGIPNMLLSEEETES, the “effect of a mutation on the interaction” value is reported as “disrupting interaction strength”. MKLLTHNLLFSHVRGVGSRGFPLRLQATEVRICPVEFNPNFVARMIPKVEWSAFLEAADNLRLIQVPKGPVEGYEENEEFLRTMHHLLLEVEVIEGTLQCPESGRMFPISRGIPNMLLSEEETES: the “effect of a mutation on the interaction” value is listed as “disrupting interaction strength”. Still for that read-out and setting: then MKLLTHNLLSSHVRGVGSRGFPLRLQATEVRICPVEFNPNFVARAIPKVEWSAFLEAADNLRLIQVPKGPVEGYEENEEFLRTMHHLLLEVEVIEGTLQCPESGRMFPISRGIPNMLLSEEETES, with “disrupting interaction strength”.

In the case of MKLLTHNWLSSHVRGVGSRGFPLRLQATEVRICPVEFNPNFVARMIPKVEWSAFLEAADNLRLIQVPKGPVEGYEENEEFLRTMHHLLLEVEVIEGTLQCPESGRMFPISRGIPNMLLSEEETES, the “effect of a mutation on the interaction” value was “disrupting interaction strength”. Same read-out and setting: then MKLLAHNLLSSHVRGVGSRGFPLRLQATEVRICPVEFNPNFVARMIPKVEWSAFLEAADNLRLIQVPKGPVEGYEENEEFLRTMHHLLLEVEVIEGTLQCPESGRMFPISRGIPNMLLSEEETES, with “disrupting interaction strength”; and MKLLTHNLLSSHVRGVGSRGFPLRLQATEVRICPVEFNPNFVARMIPKVEWSAFLEAADNLRLIQVPKGPVEGYEENEEFLRTMHHLLLEVEVIEGTLQCPESGRMAPISRGIPNMLLSEEETES, with “disrupting interaction strength”.

A further assay covers variants of B3. Conditions: with bud23_human BUD23, O43709.
Consider MKLLTHNLLSSHVRGVGSRGFPLRLQATEVRICPVEFNPNFVARMIPKVAWSAFLEAADNLRLIQVPKGPVEGYEENEEFLRTMHHLLLEVEVIEGTLQCPESGRMFPISRGIPNMLLSEEETES, for which the “effect of a mutation on the interaction” value was “with no effect”. The same measure, in the same setting: then MKLLTHNLLFSHVRGVGSRGFPLRLQATEVRICPVEFNPNFVARMIPKVEWSAFLEAADNLRLIQVPKGPVEGYEENEEFLRTMHHLLLEVEVIEGTLQCPESGRMFPISRGIPNMLLSEEETES, with “with no effect”. On the same count and under the same terms, to MKLLTHNLLSSHVRGVGSRGFPLRLQATEVRICPVEFNPNFVARMIPAVEWSAFLEAADNLRLIQVPKGPVEGYEENEEFLRTMHHLLLEVEVIEGTLQCPESGRMFPISRGIPNMLLSEEETES belongs “with no effect”; to MKLLTHNLLSSHVRGVGSRGFPLRLQATEVRICPVEFNPNFVARMIPKVEWSAFLEAADNLRLIQVPKGPVEGYEENEEFLRTMHHLLLEVEVIEGTLQCPESGRMAPISRGIPNMLLSEEETES, “disrupting interaction strength”. The same measure, in the same setting: then MKLLTHNLLSSHVRGVGSRGFPLRLQATEVRICPVEFNPNFVARAIPKVEWSAFLEAADNLRLIQVPKGPVEGYEENEEFLRTMHHLLLEVEVIEGTLQCPESGRMFPISRGIPNMLLSEEETES, with “with no effect”; and MKLLTHNLLSSHVRGVGSRGFPLRLQATEVRICPVEFNPNFVARMIPAVEWSAFLEAADNLRLIQVPKGPVEGYEENEEFLRTMHHLLLEVAVIEGTLQCPESGRMFPISRGIPNMLLSEEETES, with “with no effect”. With MKLLTHNWLSSHVRGVGSRGFPLRLQATEVRICPVEFNPNFVARMIPKVEWSAFLEAADNLRLIQVPKGPVEGYEENEEFLRTMHHLLLEVEVIEGTLQCPESGRMFPISRGIPNMLLSEEETES, the “effect of a mutation on the interaction” value is “with no effect”. The same measure, in the same setting: to MKLLTHNLLSSHVRGVGSRGFPLRLQATEVRICPVEFNPNFVARMIPKVEWSAFLEAADNLRLIQVPKGPVEGYEENEEFLRTMHHLLLEVEVIEGTLQCPESGRMFPISRGAPNMLLSEEETES belongs “with no effect”; to MKLLTHNLLSSHVRGVGSRGFPLRLQATEVRICPVEFNPNFVARMIPKVEWSAFLEAADNLRLIQVPKGPVEGYEENEEFLRTMHHLLLEVAVIEGTLQCPESGRMFPISRGIPNMLLSEEETES, “with no effect”; to MKLLAHNLLSSHVRGVGSRGFPLRLQATEVRICPVEFNPNFVARMIPKVEWSAFLEAADNLRLIQVPKGPVEGYEENEEFLRTMHHLLLEVEVIEGTLQCPESGRMFPISRGIPNMLLSEEETES, “decreasing interaction strength”.
